The subject of the series is T1, Rsp (Staphylococcus aureus NCTC8325), ORF:0cc986df.
T1 sequence: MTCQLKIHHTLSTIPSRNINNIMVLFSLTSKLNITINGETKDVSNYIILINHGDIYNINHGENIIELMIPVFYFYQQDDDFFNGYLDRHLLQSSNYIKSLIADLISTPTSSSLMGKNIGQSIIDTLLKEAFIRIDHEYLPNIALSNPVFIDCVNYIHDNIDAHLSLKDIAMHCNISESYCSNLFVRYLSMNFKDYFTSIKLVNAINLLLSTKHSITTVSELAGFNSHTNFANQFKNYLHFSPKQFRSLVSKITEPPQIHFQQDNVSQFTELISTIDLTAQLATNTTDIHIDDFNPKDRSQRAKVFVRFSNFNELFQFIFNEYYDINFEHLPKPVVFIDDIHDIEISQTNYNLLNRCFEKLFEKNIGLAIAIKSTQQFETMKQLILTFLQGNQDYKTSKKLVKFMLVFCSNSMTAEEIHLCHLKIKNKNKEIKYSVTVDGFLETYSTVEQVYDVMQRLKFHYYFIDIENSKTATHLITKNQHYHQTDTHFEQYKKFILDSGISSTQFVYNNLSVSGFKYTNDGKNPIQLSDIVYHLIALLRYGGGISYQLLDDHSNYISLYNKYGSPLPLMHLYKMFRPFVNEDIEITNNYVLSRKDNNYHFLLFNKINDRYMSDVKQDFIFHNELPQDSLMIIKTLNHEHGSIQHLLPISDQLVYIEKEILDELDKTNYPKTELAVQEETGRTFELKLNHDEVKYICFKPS
Put plainly: EMSA.
For the sequence “AACCTTCCATTGAAAACACTCCTTAAAATTTAAATTTGAAGATAACAAAAACGTGCGTAGCTTTTAAATCACCGAAATGTTATTCGCTT (double strand) [psmβ promoter 89 bp]”, the binding result is given as “no binding”.

As to “ACTTAAATACGAATTCAGGCAACTTAATTGTGTTAAATACAGTTTTGAATGCCTAACTGTATTTCTTTTCTCTTTAAAATACAGTTAAGTACATTATAAGATGTTGTGCGGATAAACAAACTAATTGCATCAAATTTATTTTAAAATAACAACAACAAAACGTTAAGCGAATAACATTTCGGTGATTTAAAAGCTACGCACGTTTTTGTTATCTTCAAATTTAAATTTTAAGGAGTGTTTTCAATGGAAGGTT (double strand) [psmβ promoter 253 bp]”, the binding result is “binds”.

For the sequence “GCCAGCGATGATACCCATTAAGATTACCTCCTTTGCTTATGAGTTAACTTCATTGTACATAGTTATCTTGTGCGTAATTGATTTT (double strand) [psmα promoter 85 bp]”, the binding entry is reported as “no binding”.

As to “TAGTGTTGTTGTTACTGAGCTGACTATACGTGTTTTCATTTTCATCATCCTTCTATTTTTTAAAACGATTTGAGGAAACAATAATCAATATGTCAATTTAGAATATTGCA (double strand) [hla promoter 110 bp]”, the binding result is recorded as “no binding”.

With “TGATTTTAAAAATTTCCATGTTTTACATTTAAATGATAGATTTCAATATATATTAGGCAGGAGAGAGAAATATGACATGCCAACTTAAA (double strand) [rsp promoter 89 bp]”, the binding entry is listed as “no binding”.
